Where two headings read alike, the source gives them in different places.
Experiments:
[1] = target: RSV A2 pre-F (RSV A2); test: BLI
[2] = target: RSV A2 pre-F (RSV A2); test: ELISA
[3] = target: RSV A2 pre-F (RSV A2); test: ELISA; remark: listed apart in the source
[4] = target: RSV A2 pre-F (RSV A2); test: BLI; remark: listed apart in the source

B1: F6-49 (antibody, V domains shown)
VH: QVQLVESGGGVVLPGTSLTLSCAASGFTFRHYAIHWVRQTPGGGLEWVAALPYDGSTKYFAESVKDRFTIYRDNSQAAAFLHMSSLTPGDTALYYCARSTYSYEYSFLGYFYYMDVWGRGTSVTVSS
VL: QSALTQPASVSGSPGQSISISCTGTSRDVGAYTYISWSQQHTGQAPKLLIYDVSERPSGVSDRFSGSKTGDTASLAISGLQAEDEAVYYCSSYTDSNTVVFGGGTKVTVL
**Q.** B1 was tested. Which Kd [1] did it give?
**A.** The Kd was 0.713 nM.

**Q.** And the EC50 [2]?
**A.** Its EC50 is 0.0104 µg/mL.

B2: MEDI8897 (antibody, V domains shown)
VH: QVQLVQSGAEVKKPGSSVMVSCQASGGLLEDYIINWVRQAPGQGPEWMGGIIPVLGTVHYGPKFQGRVTITADESTDTAYMELSSLRSEDTAMYYCATETALVVSETYLPHYFDNWGQGTLVTVSS
VL: DIQMTQSPSSLSAAVGDRVTITCQASQDIVNYLNWYQQKPGKAPKLLIYVASNLETGVPSRFSGSGSGTDFSLTISSLQPEDVATYYCQQYDNLPLTFGGGTKVEIKR
**Q.** B2 was tested. Which EC50 [3] did it give?
**A.** Its EC50 is 0.0313 µg/mL.

**Q.** And the Kd [1]?
**A.** The Kd was 0.122 nM.

**Q.** What about the Kd [4] of the same binder?
**A.** The Kd was 0.379 nM.

**Q.** What about the EC50 [2] of the same binder?
**A.** Its EC50 is 0.0146 µg/mL.

B3: F6-47 (antibody, V domains shown)
VH: QVQLLESGGNVVQPGRSLSLSCVASGFALKSYAVHWVRQAPGKGLEWVAFVPYDAVTNYYADSVKGRFTVSRDISKNTVNLHMNRLMGEDTAVYFCARGATSGSYSFLGYNYYMDVWGRGTAVTVSS
VL: QSALTQPASVSGSPGQPITISCTGTSSDVGAYTYVSWYQHHPGKAPKLILFDVTDRPSGVSHRFSGSKSGNTASLTISGLQSEDEAEYYCSSYTDRNTIVFGGGTTLTVL
**Q.** Which Kd [1] does the source give for B3 here?
**A.** Its Kd is 0.343 nM.

**Q.** What about the EC50 [2] of the same binder?
**A.** Its EC50 is 0.00998 µg/mL.

B4: F6-37 (antibody, V domains shown)
VH: QVHLVESGGNVVHPGTSLSLSCAGSGFTFKSHAIHWVRQAPGRGLEWVAFVPYDGATNYYADSLKGRFTVSRDNSRNTVSLHMNRLEGQDTAVYFCARGATSGSYSFLGYNYYMDVWGRGTTVTVSS
VL: QSALTQPASVSGSPGQSITISCTGTSSDVGAYTYVSWYQQLPGKAPKLLLFDVTDRPSGVAHRFSGSKSGNTASLTISGLQAEDEAEYYCSSYTDRNTLVFGGGTKLTVL
**Q.** Which Kd [1] does the source give for B4 here?
**A.** The Kd was 0.68 nM.

**Q.** What about the EC50 [2] of the same binder?
**A.** Its EC50 is 0.0117 µg/mL.

B5: F6-56 (antibody, V domains shown)
VH: QVQLVESGGDVVRPGTSLRLSCAASGFAFRSHALHWVRQAPGKGLEWVSVISYDGGHTNSADSVKGRFTVSRDNSKNILFLQMNSLRIEDTAVYFCARSEGSYRSWPGYFYYMDVWGNGTTVTVSS
VL: QSALTQPASVSGSPGQSITISCIGTSSDVGGYYYVSWYQQHPGKAPKLIIFDVSDRPSGVSSRFSGSQSGNTASLTISGLQAEDEADYYCNSYSSSTTPYVFGSGTKVTVL
**Q.** B5 was tested. Which Kd [1] did it give?
**A.** The Kd was 0.381 nM.

**Q.** What about the EC50 [2] of the same binder?
**A.** Its EC50 is 0.0141 µg/mL.
